Experimental data published in publication PMC6566870.
Like-named read-outs stand apart in the source and are kept apart here.

Key:
[1] = target: N-terminally His6-tagged cMyc-tagged human CCR1 (human) (UniProt P32246)
[2] = target: N-terminally His6-tagged cMyc-tagged human CCR1 (human) (UniProt P32246); remark: listed apart in the source
[3] = target: N-terminally His6-tagged cMyc-tagged human CCR1 (human) (UniProt P32246); assay: radioligand binding; competitive displacement of 50 pM 125I-CCL3 from membranes of Flp-In T-REx 293 cells expressing CCR1; 2 h at 37 °C; two sets of experiments (Table 1, Table 3)
[4] = target: N-terminally His6-tagged cMyc-tagged human CCR1 (human) (UniProt P32246); remark: listed apart in the source
[5] = target: N-terminally His6-tagged cMyc-tagged human CCR1 (human) (UniProt P32246); remark: listed apart in the source
[6] = target: N-terminally His6-tagged cMyc-tagged human CCR1 (human) (UniProt P32246); assay: radioligand binding; competitive displacement of 50 pM 125I-CCL3 from membranes of Flp-In T-REx 293 cells expressing CCR1; 2 h at 37 °C; two sets of experiments (Table 1, Table 3); remark: listed apart in the source

Sequence of N-terminally His6-tagged cMyc-tagged human CCR1 (human) (P32246 whole entry): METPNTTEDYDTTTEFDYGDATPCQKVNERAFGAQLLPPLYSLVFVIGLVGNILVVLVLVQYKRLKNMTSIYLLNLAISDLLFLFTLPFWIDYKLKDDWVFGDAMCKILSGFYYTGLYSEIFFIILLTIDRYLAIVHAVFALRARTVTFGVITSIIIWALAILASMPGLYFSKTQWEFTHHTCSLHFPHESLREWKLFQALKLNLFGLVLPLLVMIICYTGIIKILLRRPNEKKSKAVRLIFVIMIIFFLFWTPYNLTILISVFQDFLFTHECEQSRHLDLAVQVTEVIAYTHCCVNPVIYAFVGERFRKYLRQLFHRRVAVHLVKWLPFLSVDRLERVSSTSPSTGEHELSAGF

Substance | ERK1/2 phosphorylation, EC50 [1] [nM] | ERK1/2 phosphorylation, Emax [1] [%] | ERK1/2 phosphorylation, pEC50 [1] | Gαi1 activation (BRET), EC50 [1] [nM] | Gαi1 activation (BRET), Emax [1] [%] | Gαi1 activation (BRET), pEC50 [1] | Gαi2 activation (BRET), EC50 [1] [nM] | Gαi2 activation (BRET), Emax [1] [%] | Gαi2 activation (BRET), pEC50 [1] | inhibition of forskolin-induced cAMP production, EC50 [1] [nM] | inhibition of forskolin-induced cAMP production, Emax [1] [%] | inhibition of forskolin-induced cAMP production, pEC50 [1] | transduction coefficient Log(τ/KA), GPA αi1 [2] | transduction coefficient Log(τ/KA), GPA αi2 [2] | transduction coefficient Log(τ/KA), cAMP [2] | transduction coefficient Log(τ/KA), pERK [2] | IC50 [3] [nM] | pIC50 [3] | further results
CCL15(Δ28) (ligand) | 2.1 | 28.3 | 8.7 -log M | 2.3 | 86.2 | 8.6 -log M | 1.3 | 140 | 8.9 -log M | 0.4 | 35.7 | 9.4 -log M | 8.4 | 8.6 | 8.9 | 8.6 | 0.074 | 10.1 -log M | –
CCL15(Δ26) (ligand) | – | – | – | – | – | – | 1.2 | 114 | 8.9 -log M | – | – | – | – | 8.3 | – | – | 0.028 | 10.6 -log M | ERK1/2 phosphorylation, EC50 [4]: 2.3 nM; ERK1/2 phosphorylation, Emax [4]: 25.4%; ERK1/2 phosphorylation, pEC50 [4]: 8.6 -log M; G protein activation (Gαi1, BRET), EC50 [4]: 1 nM; G protein activation (Gαi1, BRET), Emax [4]: 111%; G protein activation (Gαi1, BRET), pEC50 [4]: 9 -log M; inhibition of forskolin-induced cAMP production, EC50 [4]: 2.8 nM; inhibition of forskolin-induced cAMP production, Emax [4]: 28.7%; inhibition of forskolin-induced cAMP production, pEC50 [4]: 8.6 -log M; inhibition of forskolin-induced cAMP production, EC50 (Table 3) [1]: 2.7 nM; transduction coefficient Log(τ/KA), GPA αi1 [5]: 8.6; transduction coefficient Log(τ/KA), cAMP [5]: 8.1; transduction coefficient Log(τ/KA), pERK [5]: 8.4; transduction coefficient Log(τ/KA), GPA αi1 (second set of experiments) [2]: 8.7; transduction coefficient Log(τ/KA), cAMP (second set of experiments) [2]: 8.4; transduction coefficient Log(τ/KA), pERK (second set of experiments) [2]: 8.7; IC50 [6]: 0.093 nM; pIC50 [6]: 10.1 -log M
CCL15(N-CCL7) (ligand) | 1.3 | 28.2 | 8.9 -log M | 0.7 | 91.2 | 9.2 -log M | 1.5 | 124 | 8.8 -log M | 0.2 | 35.5 | 9.7 -log M | 9 | 8.5 | 9.1 | 8.8 | 0.54 | 9.3 -log M | –
